Tests used:
NC(=O)NC(=O)NC(N)=O = tested on: T1, NC(=O)NC(=O)NC(N)=O; assay: ammonia release, Berthelot assay; format: biochemical, Rhodococcus sp. Mel; details: phosphate buffer, pH optimum, 25 °C, saturation not achieved
T1 construct: recombinant

NC(=O)NC(N)=O = tested on: T2, NC(=O)NC(N)=O; assay: ammonia release, Berthelot assay; format: biochemical, Rhodococcus sp. Mel; details: phosphate buffer, pH optimum, 25 °C
T2 construct: recombinant

[1] = molecular target: Triuret hydrolase (TrtA) from Herbaspirillum sp. BH-1, wild type, His-tag cleaved (Herbaspirillum sp. BH-1); assay: SEC; HiLoad 16/600 Superdex 200 pg, 50 mM Tris, 200 mM sodium chloride, pH 8, 1 ml/min; His-tag cleaved TrtA

Chain of RhdBiuH (Rhodococcus sp. Mel) (chain, as listed by the source): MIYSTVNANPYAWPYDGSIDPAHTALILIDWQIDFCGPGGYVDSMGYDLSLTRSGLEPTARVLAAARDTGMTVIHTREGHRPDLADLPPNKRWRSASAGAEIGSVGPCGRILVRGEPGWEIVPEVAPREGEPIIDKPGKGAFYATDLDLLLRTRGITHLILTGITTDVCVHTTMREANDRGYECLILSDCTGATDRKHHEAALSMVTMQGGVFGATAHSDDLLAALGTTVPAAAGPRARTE

stoichiometry N [1]	Substance	kcat (NC(=O)NC(=O)NC(N)=O) [s⁻¹]	kcat/Km (NC(=O)NC(=O)NC(N)=O) [M⁻¹ s⁻¹]	Km (NC(=O)NC(N)=O) [µM]
	RhdBiuH (Rhodococcus sp. Mel)	0.14	170 ± 40	95 ± 26
2	Triuret hydrolase (TrtA) from Herbaspirillum sp. BH-1, wild type, His-tag cleaved (from UniProt A0A2N6JFX7 1-220) (enzyme)			
